Experimental data reported in PMC3062784 (Biochimica et Biophysica Acta, 2011).
Values joined by “and” are separate entries in the source; they are usually repeats but may differ in a detail not shown here. Equal entries are not always repeated.

Key:
native gel or EMSA = target: the molecule itself; test: native gel or EMSA
cross-linking = target: the molecule itself; test: cross-linking

B1: C-terminally triple HA-tagged Pun1p expressed via the MET25 promoter from plasmid YEpM-PUN1-HA (natural protein, S. cerevisiae, UniProt Q06991 1-263, looked up)
chain: MRNFFTLFFAAIFSLGALILAIVACAGSTKNYSPINKIYCAELDLSQMKVSTVLPSLSSATLSSLGLPSYINIGLWSYCTVDSSHNIQSCSSPHGIQNFNLSSLVYDNINNNEALELMDSVASVVLPEKLKSKMTYYNNLVKCMFITILIGIVLTFVNLVFNVLRWIIHIRPLTWFGAFFSFFAFAALLVSIGSCLGTYSYIKYILKHNYSDYGISMSIGRNYQGLMWGAVVGALLNFILWCSVRSRPTVIYANAPIEEKPLI
stoichiometry N (native gel or EMSA): 10 and 12 and 8
stoichiometry N (cross-linking): 2 and 4 and 6
